Experimental data taken from patent US6339070B1, “Gene construct encoding a heterologous prodrug-activating enzyme and a cell targeting moiety” (Zeneca Limited, priority 1997, dated 2002).

Assays:
[1] = biological target: T1, human carcinoembryonic antigen (CEA) (Homo sapiens, UniProt P06731); test: CEA-binding ELISA, anti human kappa light chain reporter antibody; details: COS-7 transient expression supernatant
T1 sequence (P06731 35-676): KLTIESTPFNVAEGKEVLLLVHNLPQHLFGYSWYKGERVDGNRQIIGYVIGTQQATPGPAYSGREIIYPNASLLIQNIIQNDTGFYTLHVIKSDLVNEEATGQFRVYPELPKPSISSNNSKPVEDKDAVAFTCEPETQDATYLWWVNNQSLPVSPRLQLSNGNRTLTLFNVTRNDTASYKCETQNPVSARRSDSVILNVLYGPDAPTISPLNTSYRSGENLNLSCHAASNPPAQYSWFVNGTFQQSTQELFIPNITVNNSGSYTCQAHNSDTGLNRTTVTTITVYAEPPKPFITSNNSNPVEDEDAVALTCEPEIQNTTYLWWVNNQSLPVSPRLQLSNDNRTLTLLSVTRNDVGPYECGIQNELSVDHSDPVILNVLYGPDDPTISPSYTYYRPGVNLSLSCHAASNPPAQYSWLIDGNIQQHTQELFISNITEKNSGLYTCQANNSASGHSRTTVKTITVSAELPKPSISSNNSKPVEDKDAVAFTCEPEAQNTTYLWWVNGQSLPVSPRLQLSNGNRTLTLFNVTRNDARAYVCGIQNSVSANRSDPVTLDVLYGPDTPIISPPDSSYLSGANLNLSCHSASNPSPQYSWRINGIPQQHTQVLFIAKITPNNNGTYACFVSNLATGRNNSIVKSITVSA
Description: For the CEA ELISA each well of a 96 well immunoplate (NUNC MAXISORB™) was coated with 50 ng CEA in 50 mM carbonate/bicarbonate coating buffer pH9.6 (buffer capsules—Sigma C3041) and incubated at 4° overnight. The plate was washed three times with PBS-TWEEN™ (PBS+0.05% TWEEN™ 20) and then blocked 150 μl per well of 1% BSA in PBS-TWEEN™ for 1 hour at room temperature. The plate was washed three times with PBS-TWEEN™, 100 μl of test sample added per well and incubated at room temperature for 2 hours. The plate was washed three times with PBS-TWEEN™, 100 μl per well of a 1/500 dilution of HRPO-labelled goat anti-human kappa antibody (Sigma A 7164) was added in 1% BSA in PBS-TWEEN™ and incubated at room temperature on a rocking platform for at least 1 hour. The plate was washed three times with PBS-TWEEN™ and then once more with PBS. To detect binding, add 100 μl per well of developing solution (one capsule of phosphate-citrate buffer—Sigma P4922—dissolved in 100 ml H2O to which is added one 30 mg tablet o-phenylenediamine dihydrochloride—Sigma P8412) and incubated for up to 15 minutes. The reaction was stopped by adding 75 μl 2M H2SO4, and absorbance read at 490 nm.

[2] = biological target: T1, human carcinoembryonic antigen (CEA); test: CEA-binding ELISA, anti-CPG2 reporter antibody; details: COS-7 transient expression supernatant
Description: The CEA ELISA using an anti CPG2 reporter antibody was essentially as above but instead of HRPO-labelled goat anti-human kappa antibody an 1/1000 dil. of a rabbit anti-CPG2 polyclonal sera was added, in 1% BSA in PBS-TWEEN™ and incubated at room temperature on a rocking platform for at 2 hours. The plate was washed three times with PBS-TWEEN™. A 1/2000 dilution of a goat anti-rabbit HRPO labelled antibody (Sigma A-6154) was then added and incubated at room temperature on a rocking platform for 1 hour, the plate was washed three times with PBS-TWEEN™ and once with PBS. To detect binding add 100 μl per well developing solution (one capsule of phosphate-citrate buffer—Sigma P4922—dissolved in 100 ml H2O to which is added one 30 mg tablet o-phenylenediamine dihydrochloride—Sigma P8412) and incubated for up to 15 minutes. The reaction was stopped by adding 75 μl 2M H2SO4, and absorbance read at 490 nm.

[3] = tested on: LoVo, CEA bearing, tumour cells; test: In vitro cell killing assay: cell-bound fusion protein plus PGP prodrug, SRB stain; assay type: cell-based; details: unbound protein washed off, PGP 1 hr, 4 days proliferation
Description: An in vitro cell killing assay was performed in which the (A5B7-CPG2 R6)2 fusion protein was compared to a “conventional” A5B7 F(ab′)2-CPG2 conjugate formed through linking A5B7 F(ab′)2 to CPG2 with a chemical heterobifunctional reagent. […] The cells were then washed to remove unbound protein material and subsequently resuspended in medium containing a CPG2 phenol prodrug (PGP, see Example 2 below) for a period of 1 hr, after which the cells were washed, resuspended in fresh media and left to proliferate for 4 days. Finally the cells were treated with SRB stain and their numbers determined.

[4] = Enzyme activity in tumour xenograft samples (methotrexate turnover, HPLC); assay type: in vivo, athymic nude mice; details: 20% recombinant: 80% parental LoVo tumours
Description: Recombinant LoVo fusion protein (A5B7-CPG2)2 expressing tumour cells or mixes of recombinant and parental LoVo cells were injected subcutaneously into athymic nude mice (10^7 tumour cells per mouse). The tumour growth rates for both 100% recombinant and 20%: 80% mixes of recombinant:parental LoVo cells were compared to those of parental cell only tumours.
To act as a standard for the assay, a CPG2 enzyme standard curve was prepared in 20% homogenate of normal tumour (parental cell tumour). Subsequent dilutions of samples were made in the same 20% homogenate of normal tumour.
Excised tumour tissue is removed from −80° storage (previously flash frozen in liquid nitrogen) and allowed to thaw. Any residual skin tissue was removed before the tumour was cut up in to small fragments with a scalpel. The tumour tissue was transferred to a preweighed tube and the weight of tumour tissue measured. PBS containing 0.2 mM ZnCl2 solution was added to each tumour sample to give a 20% (w/v) mix, homogenised and placed on ice. Dilutions of sample tumours (in 20% normal tumour homogenate) were prepared e.g. neat, 1/10, 1/20 and 1/40.
For the standard curve, dilutions of CPG2 enzyme were made to the following concentrations to a final volume of 400 μl. Similarly, 400 μl of each of the recombinant tumour sample dilutions were also prepared. After equilibration to 30°, 4 μl of 10 mM methotrexate (MTX) solution was added. The reaction was stopped after exactly 10 minutes by adding 600 μl ice cold methanol+0.2% TFA, centrifuged and the supematant collected. The substrate and product in the supernatant were then separated by HPLC (using a Cation Exchange Column, HICROM™ S5SCX-100 A, mobile phase=60% methanol, 40% 60 mM ammonium formate/0.1% TFA, detection 300 nm). To calculate enzyme activity in the tumour tissue, the standard curve was plotted as units of area of methotrexate metabolite (the standards are such that only 20-30% of the substrate is metabolised so ensuring this is not rate limiting). The test samples were analysed by comparing the unit area of metabolite against the standard curve and then multiplying by the dilution factor. Finally, making the working assumption that 1 ml=1 g the results were multiplied by 5 (as the samples were originally diluted to a 20% homogenate).

B1: (A5B7 Fab-CPG2)2 fusion protein: chimaeric A5B7 anti-CEA Fab, heavy chain Fd linked via (G4S)3 linker to CPG2 R6, dimerised through CPG2 (antibody)
heavy: EVKLVESGGGLVQPGGSLRLSCATSGFTFTDYYMNWVRQPPGKALEWLGFIGNKANGYTTEYSASVKGRFTISRDKSQSILYLQMNTLRAEDSATYYCTRDRGLRFYFDYWGQGTTLTVSSASTKGPSVFPLAPCSRSTSESTAALGCLVKDYFPEPVTVSWNSGALTSGVHTFPAVLQSSGLYSLSSVVTVPSSNFGTQTYTCNVDHKPSNTKVDKTVGGGGSGGGGSGGGGSQKRDNVLFQAATDEQPAVIKTLEKLVNIETGTGDAEGIAAAGNFLEAELKNLGFTVTRSKSAGLVVGDNIVGKIKGRGGKNLLLMSHMDTVYLKGILAKAPFRVEGDKAYGPGIADDKGGNAVILHTLKLLKEYGVRDYGTITVLFNTDEEKGSFGSRDLIQEEAKLADYVLSFEPTSAGDEKLSLGTSGIAYVQVQITGKASHAGAAPELGVNALVEASDLVLRTMNIDDKAKNLRFQWTIAKAGQVSNIIPASATLNADVRYARNEDFDAAMKTLEERAQQKKLPEADVKVIVTRGRPAFNAGEGGKKLVDKAVAYYKEAGGTLGVEERTGGGTDAAYAALSGKPVIESLGLPGFGYHSDKAEYVDISAIPRRLYMAARLIMDLGAGK
light: QTVLSQSPAILSASPGEKVTMTCRASSSVTYIHWYQQKPGSSPKSWIYATSNLASGVPARFSGSGSGTSYSLTISRVEAEDAATYYCQHWSSKPPTFGGGTKLEIKRTVAAPSVFIFPPSDEQLKSGTASVVCLLNNFYPREAKVQWKVDNALQSGNSQESVTEQDSKDSTYSLSSTLTLSKADYEKHKVYACEVTHQGLSSPVTKSFNRGEC
[1]
  CEA binding in anti-CEA ELISA: binding of protein at levels commensurate with a bivalent A5B7 antibody molecule
[2]
  CEA binding detected with anti-CPG2 reporter antibody: exhibited clear CEA binding
[3]
  cell kill with PGP prodrug compared with equivalent levels of A5B7 F(ab)2-CPG2 conjugate: at least equivalent cell kill
[4]; day 5
  average enzyme activity in tumour: 0.26 U/g
  range of enzyme activity in tumour: 0.18-0.36 U/g
[4]; day 12
  average enzyme activity in tumour: 0.65 U/g
  range of enzyme activity in tumour: 0.19-1.1 U/g
